What was measured:
Test in all cases: MTAP substrate assay, coupled spectrophotometric (adenine, xanthine oxidase)
Format in all cases: biochemical, human
Details in all cases: other: substrate of MTAP, 37° C.
[1] = substrate: Nc1ncnc2c1ncn2[C@@H]1O[C@H](CNCCc2ccccn2)[C@@H](O)[C@H]1O
Protocol: (§1) An enzymatic assay to determine the activity of MTAP against a given substrate was performed. Human MTAP containing an N-terminal six-histidine tag was expressed in E. coli BL21 DE3 cells. The protein was purified to homogeneity by Ni2+ affinity chromatography. Enzymatic activity was measured using a coupled spectrophotometric assay designed to monitor the reaction product adenine (Savarese, T. M., Crabtree, G. W., and Parks, R. E. Jr., (1980) Biochem. Pharmacol. 30, 189-199). Various concentrations of the indicated 5′-deoxymethylthio adenosine (MTA) or substrate were incubated in assay buffer (40 mM potassium phosphate buffer, 1 mM, and DTT 0.8 units/ml xanthine oxidase coupling enzyme) for 5 minutes at 37° C. The reaction was initiated by the addition of MTAP. The exact concentration of enzyme used varied for each substrate tested and ranged from 2 nM to 500 nM. Activity as a function of enzyme concentration was determined for each substrate tested to ensure that the appropriate enzyme concentration was used. Activity was detected by continuous monitoring of absorbance at 305 nm for 10 minutes (ΔE=15,500 M^−1).
(§2) Library compounds (10 and 50 uM) were tested using the assay described above with 2 nM MTAP enzyme. The resultant initial velocities are reported as a percentage of the initial velocity observed when MTA is the substrate. MTA controls, 10 and 50 uM concentrations, were run on each plate alongside the library compounds.

[2] = substrate: Nc1ncnc2c1ncn2[C@@H]1O[C@H](CSc2ccc(C(F)(F)F)cc2)[C@@H](O)[C@H]1O
Protocol: as §1, §2

[3] = substrate: CSC[C@H]1O[C@@H](n2cnc3c(N)ncnc32)[C@H](O)[C@@H]1O
Protocol: as §1, §2

[4] = substrate: COC[C@H]1O[C@@H](n2cnc3c(N)ncnc32)[C@H](O)[C@@H]1O
Protocol: as §1, §2

[5] = substrate: Cc1cccc(SC[C@H]2O[C@@H](n3cnc4c(N)ncnc43)[C@H](O)[C@@H]2O)c1
Protocol: as §1, §2

[6] = substrate: CC(C)CCSC[C@H]1O[C@@H](n2cnc3c(N)ncnc32)[C@H](O)[C@@H]1O
Protocol: as §1, §2

[7] = substrate: Nc1ncnc2c1ncn2[C@@H]1O[C@H](CSCc2ccco2)[C@@H](O)[C@H]1O
Protocol: as §1, §2

[8] = substrate: Nc1ncnc2c1ncn2[C@@H]1O[C@H](CSCCc2ccccn2)[C@@H](O)[C@H]1O
Protocol: as §1, §2

[9] = substrate: Nc1ncnc2c1ncn2[C@@H]1O[C@H](CSc2ncc[nH]2)[C@@H](O)[C@H]1O
Protocol: as §1, §2

[10] = substrate: CCN(C)C(=O)[C@H]1O[C@@H](n2cnc3c(N)ncnc32)[C@H](O)[C@@H]1O
Protocol: as §1, §2

[11] = substrate: Nc1ncnc2c1ncn2[C@@H]1O[C@H](CNC2CCCC2)[C@@H](O)[C@H]1O
Protocol: as §1, §2

[12] = substrate: CCOC(=O)CC[C@H]1O[C@@H](n2cnc3c(N)ncnc32)[C@H](O)[C@@H]1O
Protocol: as §1, §2

[13] = substrate: Nc1ncnc2c1ncn2[C@@H]1O[C@H](CSCCCc2ccccc2)[C@@H](O)[C@H]1O
Protocol: as §1, §2

[14] = substrate: CCCCSC[C@H]1O[C@@H](n2cnc3c(N)ncnc32)[C@H](O)[C@@H]1O
Protocol: as §1, §2

[15] = substrate: Nc1ncnc2c1ncn2[C@@H]1O[C@H](CSCc2cccs2)[C@@H](O)[C@H]1O
Protocol: as §1, §2

[16] = substrate: Cc1cccc(CSC[C@H]2O[C@@H](n3cnc4c(N)ncnc43)[C@H](O)[C@@H]2O)c1
Protocol: as §1, §2

[17] = substrate: CSC[C@H]1O[C@@H](n2cnc3c(N)ncnc32)[C@@H](O)[C@@H]1O
Protocol: as §1, §2

[18] = substrate: COc1ccc(OC[C@H]2O[C@@H](n3cnc4c(N)ncnc43)[C@H](O)[C@@H]2O)cc1
Protocol: as §1, §2

[19] = substrate: COc1ccc(SC[C@H]2O[C@@H](n3cnc4c(N)ncnc43)[C@H](O)[C@@H]2O)cc1
Protocol: as §1, §2

B1: Human MTAP (Homo sapiens) (protein)
chain: MASGTTTTAVKIGIIGGTGLDDPEILEGRTEKYVDTPFGKPSDALILGKIKNVDCVLLARHGRQHTIMPSKVNYQANIWALKEEGCTHVIVTTACGSLREEIQPGDIVIIDQFIDRTTMRPQSFYDGSHSCARGVCHIPMAEPFCPKTREVLIETAKKLGLRCHSKGTMVTIEGPRFSSRAESFMFRTWGADVINMTTVPEVVLAKEAGICYASIAMATDYDCWKEHEEAVSVDRVLKTLKENANKAKSLLLTTIPQIGSTEWSETLHNLKNMAQFSVLLPRH
notes: six-histidine tag (His6) (N); made in house; host or cells: E. coli BL21 DE3
[1]
  Km: 1300 µM
  kcat: 0.018 s⁻¹
[2]
  Km: 1.7 µM
  kcat: 0.29 s⁻¹
[3]
  Km: 2.233 µM
  kcat: 3.97 s⁻¹
[4]
  Km: 250 µM
  kcat: 0.006 s⁻¹
[5]
  Km: 2 µM
  kcat: 2.4 s⁻¹
[6]
  Km: 2.8 µM
  kcat: 5.5 s⁻¹
[7]
  Km: 4.45 µM
  kcat: 6.15 s⁻¹
[8]
  Km: 10.2 µM
  kcat: 1.01 s⁻¹
[9]
  Km: 9 µM
  kcat: 3.8 s⁻¹
[10]
  Km: 300 µM
  kcat: 0.8 s⁻¹
[11]
  Km: 600 µM
  kcat: 0.3 s⁻¹
[12]
  Km: 5.95 µM
  kcat: 4.12 s⁻¹
[13]
  Km: 2.8 µM
  kcat: 2.16 s⁻¹
[14]
  Km: 3.3 µM
  kcat: 5.4 s⁻¹
[15]
  Km: 6 µM
  kcat: 4.6 s⁻¹
[16]
  Km: 4 µM
  kcat: 1.82 s⁻¹
[17]
  Km: 106 µM
  kcat: 0.006 s⁻¹
[18]
  Km: 10 µM
  kcat: 0.54 s⁻¹
[19]
  Km: 7 µM
  kcat: 0.8 s⁻¹
